# Values joined by “and” are separate entries in the source; they are usually repeats but may differ in a detail not shown here. Equal values may be shown once.
# B1: nanE recognition sequence, FAM-labeled (dsDNA)
# DNA 1: TCTGAAAGTACTTTTAGA
# DNA 2: TCTAAAAGTACTTTCAGA
# B2: Streptococcus pneumoniae NanR (SpNanR), wild type (natural protein, UniProt A0ACD7PT65 1-283, looked up)
# chain: MDKPDIATIIDSHFEEMTDLEQEIARYFLQAETITDDLSSQQVTQKLHISQAALTRFAKKCGFTGYREFIFQYQHQAENQANQVSKHSPLTKRVLRSYSNMREQTQDLIDEIQLERIAQLIEDAERIYFFGTGSSGLVAREMKLRFMRLGVVCEALTDQDGFAWTTSIMDENCLVLGFSLSGSTPSILDSLLDAKEMGAKTVLFTSVPNKNSQTYTETVLVATHSQPSYIQRISAQLPMLFFIDLIYAYFLEINRESKEKIFNSYWENKKLNGYRRQKRVRKS
# notes: NanR, RpiR family transcriptional regulator of Streptococcus pneumoniae; recombinant full-length protein; intact mass 32,611 Da; Cloned into pET30ΔSE; Exists in a dimer-tetramer equilibrium; also called SpNanR^WT
# B3: SpNanR^D160A (natural protein)
# chain: MDKPDIATIIDSHFEEMTDLEQEIARYFLQAETITDDLSSQQVTQKLHISQAALTRFAKKCGFTGYREFIFQYQHQAENQANQVSKHSPLTKRVLRSYSNMREQTQDLIDEIQLERIAQLIEDAERIYFFGTGSSGLVAREMKLRFMRLGVVCEALTDQAGFAWTTSIMDENCLVLGFSLSGSTPSILDSLLDAKEMGAKTVLFTSVPNKNSQTYTETVLVATHSQPSYIQRISAQLPMLFFIDLIYAYFLEINRESKEKIFNSYWENKKLNGYRRQKRVRKS
# notes: NanR of Streptococcus pneumoniae (WP_000360349.1) with the substitution D160A; Variant of m1; source: E. coli BL21(DE3), purified
# B4: SpNanR^R148A (natural protein)
# chain: MDKPDIATIIDSHFEEMTDLEQEIARYFLQAETITDDLSSQQVTQKLHISQAALTRFAKKCGFTGYREFIFQYQHQAENQANQVSKHSPLTKRVLRSYSNMREQTQDLIDEIQLERIAQLIEDAERIYFFGTGSSGLVAREMKLRFMALGVVCEALTDQDGFAWTTSIMDENCLVLGFSLSGSTPSILDSLLDAKEMGAKTVLFTSVPNKNSQTYTETVLVATHSQPSYIQRISAQLPMLFFIDLIYAYFLEINRESKEKIFNSYWENKKLNGYRRQKRVRKS
# notes: NanR of Streptococcus pneumoniae (WP_000360349.1) with the substitution R148A; Variant of m1; source: E. coli BL21(DE3), purified
# What was measured:
# [1] = biological target: T1, SpNanR (NanR) (Streptococcus pneumoniae, UniProt A0A4M6CQT5); test: ITC (n = […]), DSF, crystal structures (8TX9, 8V4V), sedimentation velocity; type: binding
# T1 construct: gene ybbH; recombinant, full-length SpNanR
# [2] = biological target: T2, SpNanR D160A (NanR) (Streptococcus pneumoniae, UniProt A0A4M6CQT5, D160A); test: DSF thermal shift (comparable to wild type) and tetramer stabilization by sedimentation velocity; type: binding
# T2 construct: gene ybbH; recombinant SpNanR variant
# [3] = biological target: SpNanR R56A (Streptococcus pneumoniae, UniProt A0A4M6CQT5 1-283, R56A); test: MST; up to 5 uM protein; MST: 20 mM Tris-HCl pH 8.0, 300 mM NaCl, 0.05% Tween-20, 20 C, 20 nM FAM-DNA, overnight incubation; AUC: 50 nM FAM-DNA, 0.019-5 uM SpNanR, buffer not given in m; details: protein: recombinant; chain copies: 2; label: 5'-6-FAM on sense strand; blunt 18 bp
# [4] = biological target: SpNanR T18A (Streptococcus pneumoniae, UniProt A0A4M6CQT5 1-283, T18A); test: as above; details: protein: recombinant; chain copies: 2; label: 5'-6-FAM on sense strand; blunt 18 bp
# [5] = biological target: SpNanR R67A (Streptococcus pneumoniae, UniProt A0A4M6CQT5 1-283, R67A); test: as above; details: protein: recombinant; chain copies: 2; label: 5'-6-FAM on sense strand; blunt 18 bp
# [6] = biological target: the molecule itself; test: SEC-SAXS; small-angle X-ray scattering with in-line size exclusion chromatography, SpNanR without N-acetylmannosamine-6-phosphate
# [7] = biological target: the molecule itself; test: AUC; sedimentation velocity, SpNanR 4.3–227.7 μM, no N-acetylmannosamine-6-phosphate, 20 mM Tris-HCl pH 8.0, 300 mM NaCl, 20 °C; weight-averaged s fitted to a dimer-tetramer self-association model (Sedphat); tetramer to dimers
# [8] = biological target: the molecule itself; test: AUC; sedimentation velocity, SpNanR 0.27–153.5 μM, with 2 mM N-acetylmannosamine-6-phosphate, 20 mM Tris-HCl pH 8.0, 300 mM NaCl, 20 °C; tetramer to dimers
# [9] = biological target: the molecule itself; test: AUC; sedimentation velocity of SpNanR variants and wild type at the same concentration, without N-acetylmannosamine-6-phosphate (Supplementary Figure 14C–E)
# T1 sequence (A0A4M6CQT5 entry or part of it): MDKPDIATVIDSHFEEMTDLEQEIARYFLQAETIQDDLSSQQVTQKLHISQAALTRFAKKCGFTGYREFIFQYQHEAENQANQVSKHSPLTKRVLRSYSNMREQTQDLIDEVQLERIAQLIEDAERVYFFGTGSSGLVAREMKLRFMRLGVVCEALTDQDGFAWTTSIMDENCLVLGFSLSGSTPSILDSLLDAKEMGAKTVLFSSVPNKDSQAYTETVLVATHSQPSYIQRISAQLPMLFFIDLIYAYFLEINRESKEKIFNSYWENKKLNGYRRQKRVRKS
# T2 sequence (A0A4M6CQT5 whole entry D160A): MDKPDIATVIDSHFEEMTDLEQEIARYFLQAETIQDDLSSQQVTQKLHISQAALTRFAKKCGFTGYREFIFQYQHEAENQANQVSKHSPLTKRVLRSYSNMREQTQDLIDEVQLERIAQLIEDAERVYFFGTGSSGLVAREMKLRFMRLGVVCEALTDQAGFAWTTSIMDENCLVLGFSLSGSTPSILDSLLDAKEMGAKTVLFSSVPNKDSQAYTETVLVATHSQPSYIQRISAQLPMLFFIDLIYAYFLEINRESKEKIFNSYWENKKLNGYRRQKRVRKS
molecule,measurement,setting,value
"CC(=O)N[C@@H]1C(O)O[C@H](COP(=O)(O)O)[C@@H](O)[C@@H]1O (stereo partly shown) [manNAc-6-P, N-acetylmannosamine-6-phosphate]",Kd,[1],20.4 ± 6 µM
same,DSF thermal shift (comparable to wild type) and tetramer stabilization by sedime,[2],it still binds N-acetylmannosamine-6-phosphate and that this sufficiently stabilizes the tetrameric form
B1,binding result,[3],no binding
same,binding result,[4],no binding
same,binding result,[5],no binding
B2,stoichiometry N,[6],4 and 2
same,Kd,[7],97 µM
same,Kd,[8],< 0.2 µM
B3,stoichiometry N,[9],2
B4,stoichiometry N,[9],2

# From article doi:10.64898/2025.12.10.693482, “Mechanism of NanR transcriptional activation of sialic acid metabolism in Streptococcus pneumoniae” (bioRxiv, 2025)
